Assay results taken from paper PMC10238501.
“And” between values parts separate entries of the source, which are not always exact repeats. Equal entries are not always repeated.

Assays:
Assay in all cases: fluorescence anisotropy
[1] = molecular target: Gal4LOV(SK22) I532E/A536E (/ Avena sativa (chimera)) (UniProt P04386); conditions: dark; 20 mM HEPES pH 7.5, 50 mM NaCl, 50 ug/mL BSA, 5% Ficoll 400; 2 nM DNA; temperature not stated
[2] = molecular target: Gal4LOV(SK22) V416L (/ Avena sativa (chimera)) (UniProt P04386); conditions: 20 mM HEPES pH 7.5, 50 mM NaCl, 50 ug/mL BSA, 5% Ficoll 400; 2 nM DNA; temperature not stated
[3] = molecular target: Gal4LOV(SK22) (Gal4 DBD with AsLOV2 inserted between Ser22 and Lys23, no VP64) (/ Avena sativa (chimera)) (UniProt P04386); conditions: 20 mM HEPES pH 7.5, 50 mM NaCl, 50 ug/mL BSA, 5% Ficoll 400, 2 nM DNA, temperature not stated
[4] = molecular target: Gal4LOV(SK22) C450V (/ Avena sativa (chimera)) (UniProt P04386); conditions: dark; 20 mM HEPES pH 7.5, 50 mM NaCl, 50 ug/mL BSA, 5% Ficoll 400; 2 nM DNA; temperature not stated

## TCTTCGGAGGGCTGTCACCCGAATATA (double strand) [1xUAS 27-bp DNA]
[1]
  Kd: 13.4 nM
[2]
  Kd: 8.6 nM and 16.6 nM
[3]
  Kd: 4.2 nM
[3]; dark
  Kd: 6.4 nM
[4]
  Kd: 8.8 nM
